The results in this text go back to the Human Domainome abundance scans (Beltran et al. 2025).

Sequences and labels used below:
B1: SH3 and PX domain-containing protein 2B, residues 155 to 209; numbered along this chain, A1X283 (parent)
chain: EQYVVVANYQKQESSEISLSVGQVVDIIEKNESGWWFVSTAEEQGWVPATCLEGQ

± gives the uncertainty stated by the source.

The data set covers variants of B1. Briefly: abundance fitness (aPCA) (normalised: wild type 0, dead -1); higher = more abundant; growth selection in yeast, the domain comes from the species named. The following applies: Homo sapiens.
Take EQYVVVANYQKQESSEISLSVGQVVDIIEKNESGWWFVSTAELQGWVPATCLEGQ [E43L]: the abundance fitness is -0.263 ± 0.076. Under EQYVVVANYQKQESSEISLSVGQVVDIIEKNESGWWFVSTAERQGWVPATCLEGQ [E43R] stands -0.111 ± 0.067; under EQYVVVANYQKQESSEISLSVGQVVDIIEKNESGWWFVSTAEMQGWVPATCLEGQ [E43M], -0.117 ± 0.13; under EQYVVVANYQKQESSEISLSVGQVVDIIEKNESGWWFVSTAEVQGWVPATCLEGQ [E43V], -0.093 ± 0.073. Next, EQYVVVANYQKQESSEISLSVGQVVDIIEKNESGWWFVSTAESQGWVPATCLEGQ [E43S]: 0.033 ± 0.098. EQYVVVANYQKQESSEISLSVGQVVDIIEKNESGWWFVSTAENQGWVPATCLEGQ [E43N]: the abundance fitness turned out to be 0.017 ± 0.14. Next, EQYVVVANYQKQESSEISLSVGQVVDIIEKNESGWWFVSTAEWQGWVPATCLEGQ [E43W]: -0.31 ± 0.15; EQYVVVANYQKQESSEISLSVGQVVDIIEKNESGWWFVSTAEPQGWVPATCLEGQ [E43P]: -0.856 ± 0.2; EQYVVVANYQKQESSEISLSVGQVVDIIEKNESGWWFVSTAEKQGWVPATCLEGQ [E43K]: -0.167 ± 0.26.

As to EQYVVVANYQKQESSEISLSVGQVVDIIEKNESGWWFVSTAEQQGWVPATCLEGQ [E43Q], the abundance fitness came out at 0.065 ± 0.21. Under EQYVVVANYQKQESSEISLSVGQVVDIIEKNESGWWFVSTAEYQGWVPATCLEGQ [E43Y] stands -0.221 ± 0.16; under EQYVVVANYQKQESSEISLSVGQVVDIIEKNESGWWFVSTAETQGWVPATCLEGQ [E43T], -0.033 ± 0.12. Under EQYVVVANYQKQESSEISLSVGQVVDIIEKNESGWWFVSTAEEQGWVFATCLEGQ [P48F] stands -0.998 ± 0.34; under EQYVVVANYQKQESSEISLSVGQVVDIIEKNESGWWFVSTAEEQGWVWATCLEGQ [P48W], -0.835 ± 0.12.

In the case of EQYVVVANYQKQESSEISLSVGQVVDIIEKNESGWWFVSTAEEQGWVLATCLEGQ [P48L], the abundance fitness was -0.455 ± 0.1. Under EQYVVVANYQKQESSEISLSVGQVVDIIEKNESGWWFVSTAEEQGWVIATCLEGQ [P48I] stands -0.956 ± 0.26. Next, EQYVVVANYQKQESSEISLSVGQVVDIIEKNESGWWFVSTAEEQGWVGATCLEGQ [P48G]: -1 ± 0.12. Under EQYVVVANYQKQESSEISLSVGQVVDIIEKNESGWWFVSTAEEQGWVKATCLEGQ [P48K] stands -0.334 ± 0.1. For the variant EQYVVVANYQKQESSEISLSVGQVVDIIEKNESGWWFVSTAEEQGWVDATCLEGQ [P48D], the abundance fitness is -0.252 ± 0.2. As to EQYVVVANYQKQESSEISLSVGQVVDIIEKNESGWWFVSTAEEQGWVHATCLEGQ [P48H], the abundance fitness was -0.455 ± 0.11. Next, EQYVVVANYQKQESSEISLSVGQVVDIIEKNESGWWFVSTAEEQGWVTATCLEGQ [P48T]: -0.888 ± 0.16. Next, EQYVVVANYQKQESSEISLSVGQVVDIIEKNESGWWFVSTAEEQGWVMATCLEGQ [P48M]: -0.76 ± 0.16; EQYVVVANYQKQESSEISLSVGQVVDIIEKNESGWWFVSTAEEQGWVNATCLEGQ [P48N]: -0.492 ± 0.11; EQYVVVANYQKQESSEISLSVGQVVDIIEKNESGWWFVSTAEEQGWVCATCLEGQ [P48C]: -0.614 ± 0.15. For EQYVVVANYQKQESSEISLSVGQVVDIIEKNESGWWFVSTAEEQGWVQATCLEGQ [P48Q], the abundance fitness was -0.568 ± 0.17. On to EQYVVVANYQKQESSEISLSVGQVVDIIEKNESGWWFVSTAEEQGWVVATCLEGQ [P48V], for which the abundance fitness is -0.79 ± 0.13. Under EQYVVVANYQKQESSEISLSVGQVVDIIEKNESGWWFVSTAEEQGWVRATCLEGQ [P48R] stands -0.306 ± 0.068; under EQYVVVANYQKQESSEISLSVGQVVDIIEKNESGWWFVSTAEEQGWVSATCLEGQ [P48S], -0.544 ± 0.09. For EQYVVVANYQKQESSEISLSVGQVVDIIEKNESGWWFVSTAEEQGWVAATCLEGQ [P48A], the abundance fitness was -0.626 ± 0.11. Under EQYVVVANYQKQESSEISLSVGQVVDIIEKNESGWWFVSTAEEQGWVEATCLEGQ [P48E] stands -0.522 ± 0.18; under EQYVVVANYQKQESSEISLSVGQVVDIIEKNESGWWFVSTAEEQRWVPATCLEGQ [G45R], -0.723 ± 0.085; under EQYVVVANYQKQESSEISLSVGQVVDIIEKNESGWWFVSTAEEQEWVPATCLEGQ [G45E], -1.21 ± 0.2. With EQYVVVANYQKQESSEISLSVGQVVDIIEKNESGWWFVSTAEEQLWVPATCLEGQ [G45L], the abundance fitness is -0.444 ± 0.085. Take EQYVVVANYQKQESSEISLSVGQVVDIIEKNESGWWFVSTAEEQDWVPATCLEGQ [G45D]: the abundance fitness is -0.964 ± 0.18. Next, EQYVVVANYQKQESSEISLSVGQVVDIIEKNESGWWFVSTAEEQKWVPATCLEGQ [G45K]: -0.547 ± 0.15; EQYVVVANYQKQESSEISLSVGQVVDIIEKNESGWWFVSTAEEQMWVPATCLEGQ [G45M]: -0.632 ± 0.13. Next, EQYVVVANYQKQESSEISLSVGQVVDIIEKNESGWWFVSTAEEQHWVPATCLEGQ [G45H]: -0.815 ± 0.35; EQYVVVANYQKQESSEISLSVGQVVDIIEKNESGWWFVSTAEEQTWVPATCLEGQ [G45T]: -0.683 ± 0.12; EQYVVVANYQKQESSEISLSVGQVVDIIEKNESGWWFVSTAEEQAWVPATCLEGQ [G45A]: -0.604 ± 0.11. Under EQYVVVANYQKQESSEISLSVGQVVDIIEKNESGWWFVSTAEEQFWVPATCLEGQ [G45F] stands -0.744 ± 0.14; under EQYVVVANYQKQESSEISLSVGQVVDIIEKNESGWWFVSTAEEQNWVPATCLEGQ [G45N], -0.95 ± 0.43. Consider EQYVVVANYQKQESSEISLSVGQVVDIIEKNESGWWFVSTAEEQIWVPATCLEGQ [G45I], for which the abundance fitness was -0.643 ± 0.17. Next, EQYVVVANYQKQESSEISLSVGQVVDIIEKNESGWWFVSTAEEQWWVPATCLEGQ [G45W]: -0.919 ± 0.19. Under EQYVVVANYQKQESSEISLSVGQVVDIIEKNESGWWFVSTAEEQVWVPATCLEGQ [G45V] stands -0.7 ± 0.088; under EQYVVVANYQKQESSEISLSVGQVVDIIEKNESGWWFVSTAEEQQWVPATCLEGQ [G45Q], -0.734 ± 0.15; under EQYVVVANYQKQESSEISLSVGQVVDIIEKNESGWWFVSTAEEQSWVPATCLEGQ [G45S], -0.965 ± 0.11. Under EQYVVVANYQKQESSEISLSVGQVVDIIEKNESGWWFVSTAEEQCWVPATCLEGQ [G45C] stands -0.779 ± 0.14. EQYVVVANYQKQESSEISLSVGQVVDIIEKNESGWWFVSTAEEQPWVPATCLEGQ [G45P]: the abundance fitness was -1.19 ± 0.26.
